For orientation: Kd means a measure of binding affinity in units of concentration. Low readings indicate tighter binding, high ones weaker binding.

This experiment has as its target human parkin, full-length, affinity tag cleaved (human) (UniProt O60260). As to the kind of experiment: ITC; parkin (20 µM in 162 µl) in the cell titrated with the chimera (mG2-Ub 100 µM, CISD1-Ub 212 µM, mG2-pUb 84 µM, CISD1-pUb 106 µM); 18°C or 25°C; 25 mM HEPES or 20 mM Tris, 100 mM NaCl, 250 µM TCEP, pH 7.5 or 8.0; duplicate; single-site model.

Sequence of human parkin, full-length, affinity tag cleaved (human) (O60260 whole entry): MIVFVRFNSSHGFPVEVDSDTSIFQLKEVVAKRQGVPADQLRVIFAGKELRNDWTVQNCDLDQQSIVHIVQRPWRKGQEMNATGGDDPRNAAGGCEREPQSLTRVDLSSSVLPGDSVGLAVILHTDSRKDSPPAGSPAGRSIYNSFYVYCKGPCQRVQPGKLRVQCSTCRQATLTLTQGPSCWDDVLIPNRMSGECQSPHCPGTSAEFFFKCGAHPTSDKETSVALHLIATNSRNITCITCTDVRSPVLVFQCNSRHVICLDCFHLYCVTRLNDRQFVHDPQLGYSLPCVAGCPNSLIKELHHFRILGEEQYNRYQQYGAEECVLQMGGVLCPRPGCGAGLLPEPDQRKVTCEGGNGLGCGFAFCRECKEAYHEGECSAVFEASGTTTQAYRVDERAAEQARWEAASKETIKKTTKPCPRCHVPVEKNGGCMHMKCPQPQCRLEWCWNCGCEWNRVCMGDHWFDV

In turn, “CISD1-pUb (CISD1-Ub phosphorylated by PINK1 at S65 of its Ub) (from UniProt Q9NZ45 32-108; P0CG63 1-76)” showed a Kd of 450 nM and a dH of 7.17 kcal/mol.

“mG2-pUb (mG2-Ub phosphorylated by PINK1 at S65 of its Ub) (from UniProt Q8IXI2 402-582; P0CG63 1-76)” showed a dissociation constant Kd of 920 nM and a dH of 9.8 kcal/mol.

(Values after article PMC9022993.)
